The source of these data is patent US20170101472A1 (Regeneron, published 2017).

A word on the Kd: it is a measure of binding affinity in units of concentration. By koff is commonly meant the rate constant with which the complex falls apart. By kon is commonly meant a measure of how fast the partners come together.

T1: human LAG3 expressed on HEK293 cells (human, UniProt P18627 23-525)
T1 construct: also called hLAG3; HEK293/hLAG3
T1 sequence: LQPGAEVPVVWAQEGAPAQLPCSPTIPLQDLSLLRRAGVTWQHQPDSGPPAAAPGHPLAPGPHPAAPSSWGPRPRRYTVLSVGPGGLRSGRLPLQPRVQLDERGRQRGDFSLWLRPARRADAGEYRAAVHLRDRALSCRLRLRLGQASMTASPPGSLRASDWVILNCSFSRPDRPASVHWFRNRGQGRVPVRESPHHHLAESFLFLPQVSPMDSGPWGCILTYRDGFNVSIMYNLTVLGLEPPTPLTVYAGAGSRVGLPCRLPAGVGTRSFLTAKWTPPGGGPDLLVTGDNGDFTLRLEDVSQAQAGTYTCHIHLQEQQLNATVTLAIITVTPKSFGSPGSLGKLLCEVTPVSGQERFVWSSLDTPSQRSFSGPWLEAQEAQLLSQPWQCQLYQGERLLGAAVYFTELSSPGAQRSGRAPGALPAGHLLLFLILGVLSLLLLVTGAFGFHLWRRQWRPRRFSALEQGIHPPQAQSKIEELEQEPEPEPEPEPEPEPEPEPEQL

T2: recombinant human LAG3 expressed with a C-terminal mouse IgG2a mFc tag (human)
T2 construct: Called dimeric; also called hLAG3-mFc; hLAG3 dimer
T2 chain: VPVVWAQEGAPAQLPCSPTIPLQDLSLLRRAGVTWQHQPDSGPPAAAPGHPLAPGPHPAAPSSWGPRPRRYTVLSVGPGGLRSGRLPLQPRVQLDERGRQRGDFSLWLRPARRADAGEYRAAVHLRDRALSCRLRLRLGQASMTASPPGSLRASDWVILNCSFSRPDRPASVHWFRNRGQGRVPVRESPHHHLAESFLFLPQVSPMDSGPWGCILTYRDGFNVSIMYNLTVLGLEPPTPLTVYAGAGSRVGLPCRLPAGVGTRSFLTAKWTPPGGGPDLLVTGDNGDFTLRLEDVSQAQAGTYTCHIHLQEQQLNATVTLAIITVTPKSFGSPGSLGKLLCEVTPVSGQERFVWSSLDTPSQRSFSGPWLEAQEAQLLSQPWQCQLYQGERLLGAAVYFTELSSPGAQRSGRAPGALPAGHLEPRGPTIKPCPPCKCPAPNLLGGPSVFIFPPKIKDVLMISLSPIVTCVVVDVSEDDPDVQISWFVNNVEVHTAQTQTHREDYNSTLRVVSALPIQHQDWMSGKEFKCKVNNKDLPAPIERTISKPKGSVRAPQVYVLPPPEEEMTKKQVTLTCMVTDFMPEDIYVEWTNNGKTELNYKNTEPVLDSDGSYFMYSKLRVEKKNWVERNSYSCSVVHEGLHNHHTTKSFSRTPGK

B1: H4H17823P (antibody, human IgG4, V domains shown)
VH: EVQLLESGGGLVQPGGSLRLSCAASGFTFRSYAMSWVRQAPGKGLEWVSVISGGGGRTYYTDSVKGRFTISRDNSKSMLYLQMNSLRAEDTAIYYCAKERVTGIDHYYYGVDVWGQGTTVTVSS
VL: DIQMTQSPSSLSASVGDRVTITCRASQSISSYLNWYQQKPGKAPKLLIYATSSLQSGVPSRFSGSASGTDFTLAISSLQPEDFATYYCQQSYTTPLTFGGGTKVEIK
notes: H4H = human IgG4 Fc with S108P hinge mutation
B2: H4H17826P2 (antibody, human IgG4, V domains shown)
VH: EVQLVESGGGLVQPGGSLRLSCAASGFTFSSYEMNWVRQAPGKGLEWVSYISSSGNTKDYAGSVKGRVTISRDNAKNLLYLQMNSLRAEDTAVYHCARDGGHYDILTGSMSYYYYALDVWGQGTTVTVSS
VL: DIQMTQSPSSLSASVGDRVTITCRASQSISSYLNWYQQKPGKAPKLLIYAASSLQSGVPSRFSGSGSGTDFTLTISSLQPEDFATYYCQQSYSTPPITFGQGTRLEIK
notes: as for B1
B3: H4H17828P2 (antibody, human IgG4, V domains shown)
VH: EVQLVESGGGLVQPGGSLRLSCAASGFTFKTYAMSWVRQAPGRGLEWVSGISGSGSTSYYADSVKGRFTISRDNYKKTLSLQMNSLRAEDTAVYYCALDIMATVGGLFNNWGQGTLVTVSS
VL: not shown
notes: as for B1
B4: H4sH15462P (antibody, V domains shown)
VH: QVQLVQSGAEVKKPGASVKVSCKASGYTFTNYYIHWVRQAPGQGLDWMGIINPGGGNTNYAQKFLGRVTMTRDTSTTTVYMELSSLRSEDTAIYYCARENWNSYFDNWGQGTLVTVSS
VL: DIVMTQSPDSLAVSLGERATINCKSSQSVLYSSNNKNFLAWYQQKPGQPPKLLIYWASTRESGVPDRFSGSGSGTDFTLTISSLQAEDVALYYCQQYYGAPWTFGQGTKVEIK
notes: H4sH = human IgG4 Fc with 2 or more amino acid changes as disclosed in US20140243504
B5: H4H15462P (antibody, human IgG4, V domains shown)
VH: B4 VH
VL: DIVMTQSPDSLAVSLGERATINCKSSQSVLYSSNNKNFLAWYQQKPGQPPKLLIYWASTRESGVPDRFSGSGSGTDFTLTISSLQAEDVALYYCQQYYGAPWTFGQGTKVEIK
notes: as for B1
B6: H4sH15479P (antibody, V domains shown)
VH: QVQLQQWGAGLLNPSETLSLTCAVYGGAFSDYYWNWIRQPPGKGLEWIGEINHRGSTNYNPSLKSRVTISVDTSKNQFSLRMSSVTAADAAVYYCARGEDYDIWNGYYQEKWGQGTLVTVSS
VL: EIVLTQSPATLSLSPGERATLSCRASQSISTYLAWYQQKPGQAPRLLIYDASKRATGIPARFSGSGSGTDFTLTISSLEPEDFVVYYCHQRSNWPLTFGGGTKVEIK

The target of one experiment is T1, human LAG3 expressed on HEK293 cells. As to the kind of experiment: electrochemiluminescence cell binding. The protocol: To investigate the ability of a panel of anti-LAG3 monoclonal antibodies to bind cell-surface expressed LAG3, an in vitro binding assay utilizing human and monkey LAG3 expressing cell lines in an electrochemiluminescence based detection platform [Meso Scale Diagnostics, Rockville, Md.—(MSD)] was developed.
Experiments were carried out according to following procedure. Cells from the three cell lines described above were rinsed once in 1×PBS buffer without Ca²⁺/Mg²⁺ followed by 10-minute incubation at 37° C. with Enzyme Free Cell Dissociation Solution. […] Approximately 10,000 cells per well in the cell-washing buffer were seeded into the 96-well carbon electrode plates (MULTI-ARRAY high bind plate, MSD) and incubated for 1 hour at 37° C. to allow the cells to adhere. Nonspecific binding sites were blocked by 2% BSA (w/v) in PBS for 1 hour at room temperature. […] The plates were then washed to remove the unbound antibodies using an AquaMax2000 plate washer (MDS Analytical Technologies). The plate-bound antibodies were detected with a SULFO-TAG™-conjugated anti-human IgG antibody (MSD) for 1 hour at room temperature. After washes, the plates were developed with the Read Buffer (MSD) according to manufacturer's recommended procedure and the luminescent signals were recorded with a SECTOR Imager 6000 (MSD) instrument. The direct binding signals (in relative light units—RLU) were analyzed as a function of the antibody concentration and the data were fitted with a sigmoidal (four-parameter logistic) dose-response model using Graph Pad Prism™ software. The potency of each antibody was determined by calculating EC₅₀.
Regarding B1, the “Ratio of 100 nM antibody binding HEK293-hLAG3 to HEK293 cells” value (“Ratio” below) was found to be 5.3.

As for B2, the “Ratio” value is 7.

On to B3, for which the “Ratio” value stood at 8.7.

As for B4, the “Ratio” value amounted to 6.8.

B5: the “Ratio” value is 2.3.

B6: the “Ratio” value turned out to be 17.8.

The next experiment has as its target T3, recombinant human LAG3 expressed with a C-terminal myc-myc-hexahistidine tag (human, UniProt P18627 29-450).
T3 construct: also called hLAG3-mmh; hLAG3.mmh
Kind of experiment: SPR, mAb captured, 25 C. The protocol: (§1) The BiaCore sensor surface was derivatized with either a polyclonal rabbit anti-mouse antibody (GE, # BR-1008-38) or with a monoclonal mouse anti-human Fc antibody (GE, # BR-1008-39) to capture approximately 50-85 RUs of anti-LAG3 monoclonal antibodies, expressed with either a mouse Fc or a human Fc, respectively. […] The binding of the LAG3 reagents to captured monoclonal antibodies was monitored for 4 minutes while their dissociation from the antibodies was monitored for 8 minutes in HBST running buffer (0.01 M HEPES pH 7.4, 0.15 M NaCl, 3 mM EDTA, 0.05% v/v Surfactant P20). Experiments were performed at 25° C. and 37° C. Kinetic association (kₐ) and dissociation (kd) rate constants were determined by processing and fitting the data to a 1:1 binding model using Scrubber 2.0c curve fitting software. Binding dissociation equilibrium constants (KD) and dissociative half-lives (t_{1/2}) were then calculated from the kinetic rate constants as: KD (M)=kd/kₐ and t_{1/2} (min)=[ln2/(60*kd)].
A general note: SPR reads the build-up and loss of mass on a sensor chip optically.
B1: the Kd stood at 0.429 nM, the koff was 0.000447 s⁻¹, the kon stood at 1.04e+06 M⁻¹ s⁻¹ and the t1/2 amounted to 25.8 min.

B2: the Kd is 10.2 nM, the koff was 0.00457 s⁻¹, the kon came to 450000 M⁻¹ s⁻¹ and the t1/2 amounted to 2.5 min.

Consider B3, for which the Kd came out at 2.31 nM, the koff is 0.00141 s⁻¹, the kon amounted to 612000 M⁻¹ s⁻¹ and the t1/2 came out at 8.2 min.

For B4, the Kd turned out to be 6.51 nM, the koff was found to be 0.00697 s⁻¹, the kon turned out to be 1.07e+06 M⁻¹ s⁻¹ and the t1/2 was 1.7 min.

Take B5: the Kd was determined as 5.75 nM, the off-rate constant (koff) worked out at 0.0054 s⁻¹, the kon was found to be 939000 M⁻¹ s⁻¹ and the t1/2 amounted to 2.1 min.

For the molecule B6, the Kd turned out to be 0.0487 nM, the koff was 5.98e-05 s⁻¹, the kon came to 1.23e+06 M⁻¹ s⁻¹ and the t1/2 amounted to 193 min.

The next experiment concerns the target T2, recombinant human LAG3 expressed with a …. As to the kind of experiment: SPR, mAb captured, 25 C. The protocol: as §1
Turning to B1, the dissociation constant Kd was 0.174 nM, the koff came to 0.000218 s⁻¹, the kon was found to be 1.26e+06 M⁻¹ s⁻¹ and the t1/2 was 52.9 min.

Consider B2, for which the Kd worked out at 0.817 nM, the koff was 0.000564 s⁻¹, the kon came to 691000 M⁻¹ s⁻¹ and the t1/2 was found to be 20.5 min.

Take B3: the Kd amounted to 0.245 nM, the koff stood at 0.00046 s⁻¹, the kon turned out to be 1.88e+06 M⁻¹ s⁻¹ and the t1/2 was 25.1 min.

For B4, the Kd amounted to 0.814 nM, the koff amounted to 0.0019 s⁻¹, the kon was determined as 2.34e+06 M⁻¹ s⁻¹ and the t1/2 came out at 6.1 min.

With B5, the Kd came to 1.01 nM, the koff stood at 0.00203 s⁻¹, the kon is 2.02e+06 M⁻¹ s⁻¹ and the t1/2 stood at 5.7 min.

With B6, the Kd is ≤ 0.00328 nM, the koff is ≤ 1e-05 s⁻¹, the kon turned out to be 3.05e+06 M⁻¹ s⁻¹ and the t1/2 is ≥ 1160 min.
